Assay results reported in patent publication US20120149881A1 (Genentech, published 2012).
Several values for one entry are separate records, joined by “and”; a condition that tells them apart may be missing. Equal values may be shown once.

T1: M1′ peptide 8 (human)
T1 peptide: PRAAGGSVPHPRCH

T2: M1′ peptide 7 (human)
T2 peptide: GQQQGLPRAAGGSVP

T3: rhesus IgE/M1′ expressed on transduced Daudi cells (human IgE/primate M1′ cassette, rhesus) (rhesus monkey)
T3 construct: The construct is described as a 'human IgE/primate M1′ cassette'; also called Rhesus M1′
T3 chain: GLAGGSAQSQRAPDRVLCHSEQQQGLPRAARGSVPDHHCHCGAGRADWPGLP

T4: cyno IgE/M1′ expressed on transduced Daudi cells (human IgE/primate M1′ cassette, cynomolgus) (cynomolgus monkey)
T4 construct: The construct is described as a 'human IgE/primate M1′ cassette'; also called Cyno M1′
T4 chain: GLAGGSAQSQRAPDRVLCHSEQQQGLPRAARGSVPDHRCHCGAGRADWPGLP

T5: M1′ peptide 4 (human)
T5 peptide: SAQSQRAPDRVLCHS

T6: M1' peptide 6
T6 construct: see f1
T6 peptide: VLCHSGQQQGLPRAA

T7: M1' peptide 3
T7 construct: see f1
T7 peptide: GLAGGSAQSQRAPDR

T8: M1' peptide 11
T8 construct: see f1
T8 peptide: CGAGRADWPGPPELD

T9: M1' peptide 12
T9 construct: see f1
T9 peptide: ADWPGPPELDVCVEE

T10: M1' peptide 10
T10 construct: see f1
T10 peptide: HPRCHCGAGRADWPG

T11: M1' peptide 1
T11 peptide: ASPSQTVQRAVSVNP

T12: M1' peptide 15
T12 construct: see f1
T12 peptide: AEGEAPWTWTGLCIF

T13: M1' peptide 13
T13 construct: see f1
T13 peptide: PPELDVCVEEAEGEA

T14: M1' peptide 2
T14 construct: see f1
T14 peptide: TVQRAVSVNPGLAGG

T15: M1′ peptide 5 (human)
T15 peptide: RAPDRVLCHSGQQQG

T16: M1' peptide 14
T16 construct: see f1
T16 peptide: VCVEEAEGEAPWTWT

T17: M1' peptide 9
T17 construct: see f1
T17 peptide: GGSVPHPRCHCGAGR


Legend:
[1] = target: T18, human IgE with the M1′ sequence (long form of membrane IgE) expressed on transduced BJAB or Daudi cells (human, UniProt P01854 116-546); test: Scatchard analysis on cells expressing human IgE/M1′
T18 construct: Full-length heavy and light chains of the U266 IgE B cell receptor, retrovirally expressed; also called IgE/M1′; IgE-M1′
T18 sequence (P01854 116-546 I515L limits assumed): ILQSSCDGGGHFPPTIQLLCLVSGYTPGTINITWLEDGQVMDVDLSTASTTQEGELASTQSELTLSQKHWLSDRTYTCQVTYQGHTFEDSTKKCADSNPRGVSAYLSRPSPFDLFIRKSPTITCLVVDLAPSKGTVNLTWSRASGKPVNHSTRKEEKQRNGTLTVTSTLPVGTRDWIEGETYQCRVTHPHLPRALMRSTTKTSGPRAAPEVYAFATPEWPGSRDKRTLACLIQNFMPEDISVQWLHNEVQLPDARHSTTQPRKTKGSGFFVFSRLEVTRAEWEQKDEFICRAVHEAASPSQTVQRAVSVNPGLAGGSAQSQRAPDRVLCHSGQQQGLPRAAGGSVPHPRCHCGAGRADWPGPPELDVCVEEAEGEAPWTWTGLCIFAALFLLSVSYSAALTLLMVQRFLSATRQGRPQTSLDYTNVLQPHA
Description: (§1) The BJAB or Daudi cells expressing various forms of IgE with or without M1′ (Human, Rhesus, Cyno) were prepared for binding in cold Binding buffer composed of base media, with 10 mM HEPES pH 7.4, and 2% FBS as well as 40 ug/ml human IgG. Cells are diluted to concentration of 1.7×10⁶ cells/ml, and kept on ice until they are added to the assay. The proteins/antibodies are iodinated with the Iodogen method. Various concentrations of cold protein are prepared in triplicate, using a 1:2 dilution starting with the saturation concentration and ending at a concentration of zero, with a total of 14 concentrations. Hot protein of a single concentration is added to all dilutions compete with the cold protein. Lastly the cells are added to the hot and cold protein mixture, 250,000 cells per sample were used. Assay is kept at 4° C. for 4 hours, shaking. Each sample is then collected and filtered on membrane, washed at least 3 times with binding buffer, allowed to dry and then counted for 1 minute using Perkin Elmer Wizard 1470 Auto Gamma Counter.

[2] = target: T18, human IgE with the M1′ sequence (long …); test: Scatchard Human M1' (nM), column Mean of exp. 2
Description: as §1

[3] = target: T19, human IgE CH3-CH4-M1′/Fc fusion protein (human); test: SPR Biacore 2000, IgG immobilized, M1′-Fc analyte
T19 construct: also called M1′ (immobilized)
T19 sequence (chain, as listed by the source limits assumed): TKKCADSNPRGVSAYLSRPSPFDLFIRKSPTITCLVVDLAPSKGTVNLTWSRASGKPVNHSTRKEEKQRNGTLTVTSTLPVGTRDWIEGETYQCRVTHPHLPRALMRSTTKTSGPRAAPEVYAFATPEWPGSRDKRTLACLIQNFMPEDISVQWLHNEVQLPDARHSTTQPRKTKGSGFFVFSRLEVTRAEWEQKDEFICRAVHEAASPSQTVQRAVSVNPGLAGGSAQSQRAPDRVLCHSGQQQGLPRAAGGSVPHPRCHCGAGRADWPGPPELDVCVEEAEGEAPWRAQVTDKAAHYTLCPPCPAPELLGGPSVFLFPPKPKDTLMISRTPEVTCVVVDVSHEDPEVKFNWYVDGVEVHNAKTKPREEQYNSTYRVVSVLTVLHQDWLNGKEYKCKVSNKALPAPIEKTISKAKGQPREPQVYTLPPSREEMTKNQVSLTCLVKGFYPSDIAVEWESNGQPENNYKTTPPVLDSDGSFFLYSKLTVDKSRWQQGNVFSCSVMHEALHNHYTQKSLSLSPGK

[4] = target: T19, human IgE CH3-CH4-M1′/Fc fusion protein; test: SPR Biacore A100, M1′ immobilized
[5] = target: T18, human IgE with the M1′ sequence (long …); test: competitive ECL binding on BJAB-IgE/M1′ cells vs biotinylated 26A11 or 47H4, 1st IC50 column
[6] = target: T18, human IgE with the M1′ sequence (long …); test: Scatchard, iodinated antibody on IgE/M1′ cells
[7] = target: T18, human IgE with the M1′ sequence (long …); test: Scatchard Human M1' (nM), column Mean of exp. 1
Description: In addition to relative affinity determinations by antibody titration and FACs detection, we also determined affinities of selected anti-MP antibodies to BJAB cell lines expressing IgE long form using Scatchard analysis. BJAB-Long cells were prepared for binding in cold Binding buffer composed of base media, with 10 mM HEPES pH 7.4, and 2% FBS as well as 40 μg/ml human IgG. Cells were diluted to a concentration of 1.7×10⁶ cells/ml, and kept on ice until added to the assay. The antibodies were iodinated with Iodogen method. Various concentrations of unlabelled antibody were prepared in triplicate, using a 1:2 dilution starting with the saturation concentration and ending at a concentration of zero, with a total of 14 concentrations. […] Each sample was then collected and filtered on a membrane, washed at least 3 times with binding buffer, allowed to dry and then measured for 1 minute using a Perkin Elmer Wizard 1470 Auto Gamma Counter.
The BJAB or Daudi cells expressing various forms of IgE with or without M1′ (Human, Rhesus, Cyno) were prepared for binding in cold Binding buffer composed of base media, with 10 mM HEPES pH 7.4, and 2% FBS as well as 40 ug/ml human IgG. […] Each sample is then collected and filtered on membrane, washed at least 3 times with binding buffer, allowed to dry and then counted for 1 minute using Perkin Elmer Wizard 1470 Auto Gamma Counter.

[8] = target: T18, human IgE with the M1′ sequence (long …); test: Scatchard Human M1' (nM), overall Mean of two experiments
Description: as §1

M1′ peptide 8 = target: T1, M1′ peptide 8; test: ELISA on coated antigen, relative OD450/650
Description: (§2) 15 peptides were generated spanning the sequence surrounding and including human M1′ (Clifford Quan) (FIG. 5A). Peptides were resuspended in either dH20 or 50% DMSO. […] 0.05% Tween-20, 10 ppm Proclin., 0.2% BgG, 0.25% Chaps, 5 mM EDTA, 0.35M NaCl]. […] Plates were then incubated for 2 hours at room temperature. Murine antibody plates were washed 3 times and then anti-mouse IgG1-Biotin (BD Biosciences (A85-1) #553441) was added (1:10,000, 100 μl per well) and incubated for 1 hour at RT. Following 3 washes, SA-HRP (BD Biosciences #554066) was added (1:20,000, 100 μl per well) and incubated for 1 hour. Human IgG1 antibody plates were washed as before and anti-hulgG.Fc-HRP (Jackson ImmunoResearch (#109-036-098)) was added (1:10,000, 100 μl per well) and incubated for 1 hour at RT. Once secondary incubations were complete, plates were washed 6 times and TMB substrate (BD OptEIA #555214) was added (100 μl per well). The substrate-HRP reaction was stopped with 1M H3PO4 after ˜4 minutes. Plates were then read at 450/650. Data was represented as relative OD (OD₄₅₀/CD650).

M1′ peptide 7 = target: T2, M1′ peptide 7; test: ELISA on coated antigen, relative OD450/650
Description: as §2

[9] = target: T18, human IgE with the M1′ sequence (long …); test: Scatchard Human M1' (nM), column Measured; iodinated antibody on cells expressing human IgE/M1'
Description: as §1

[10] = target: T18, human IgE with the M1′ sequence (long …); test: competitive ECL binding on BJAB-IgE/M1′ cells vs biotinylated 26A11 or 47H4, 2nd IC50 column
[11] = target: T19, human IgE CH3-CH4-M1′/Fc fusion protein; test: SPR Biacore 2000, M1′-Fc immobilized
[12] = target: T3, rhesus IgE/M1′ expressed on transduced …; test: Scatchard analysis on cells expressing rhesus IgE/M1′
[13] = target: T18, human IgE with the M1′ sequence (long …); test: number printed in the titration panel; FIG. 3M calls these numbers 'Scatchard Results' (BJAB-Long cells)
Description: In addition to relative affinity determinations by antibody titration and FACs detection, we also determined affinities of selected anti-MP antibodies to BJAB cell lines expressing IgE long form using Scatchard analysis. BJAB-Long cells were prepared for binding in cold Binding buffer composed of base media, with 10 mM HEPES pH 7.4, and 2% FBS as well as 40 μg/ml human IgG. Cells were diluted to a concentration of 1.7×10⁶ cells/ml, and kept on ice until added to the assay. The antibodies were iodinated with Iodogen method. Various concentrations of unlabelled antibody were prepared in triplicate, using a 1:2 dilution starting with the saturation concentration and ending at a concentration of zero, with a total of 14 concentrations. Iodinated antibody of a single concentration was added to all dilutions of the competitor unlabelled antibody. Lastly 250,000 BJAB-Long cells were added to each mixture of iodinated and unlabelled antibody. The samples were incubated at 4° C. for 4 hours, shaking. Each sample was then collected and filtered on a membrane, washed at least 3 times with binding buffer, allowed to dry and then measured for 1 minute using a Perkin Elmer Wizard 1470 Auto Gamma Counter.

[14] = target: T4, cyno IgE/M1′ expressed on transduced …; test: Scatchard analysis on cells expressing cyno IgE/M1′
M1′ peptide 4 = target: T5, M1′ peptide 4; test: ELISA on coated antigen, relative OD450/650
Description: as §2

[15] = target: T18, human IgE with the M1′ sequence (long …); test: Scatchard Human M1' (nM), overall Mean of three experiments
Description: as §1

[16] = target: T18, human IgE with the M1′ sequence (long …); test: Scatchard Human M1' (nM), column Mean of exp. 3
Description: as §1

M1' peptide 6 = target: T6, M1' peptide 6; test: ELISA on coated antigen, relative OD450/650
Description: as §2

M1' peptide 3 = target: T7, M1' peptide 3; test: ELISA on coated antigen, relative OD450/650
Description: as §2

M1' peptide 11 = target: T8, M1' peptide 11; test: ELISA on coated antigen, relative OD450/650
Description: as §2

M1' peptide 12 = target: T9, M1' peptide 12; test: ELISA on coated antigen, relative OD450/650
Description: as §2

M1' peptide 10 = target: T10, M1' peptide 10; test: ELISA on coated antigen, relative OD450/650
Description: as §2

M1' peptide 1 = target: T11, M1' peptide 1; test: ELISA on coated antigen, relative OD450/650
Description: as §2

M1' peptide 15 = target: T12, M1' peptide 15; test: ELISA on coated antigen, relative OD450/650
Description: as §2

M1' peptide 13 = target: T13, M1' peptide 13; test: ELISA on coated antigen, relative OD450/650
Description: as §2

M1' peptide 2 = target: T14, M1' peptide 2; test: ELISA on coated antigen, relative OD450/650
Description: as §2

M1′ peptide 5 = target: T15, M1′ peptide 5; test: ELISA on coated antigen, relative OD450/650
Description: as §2

M1' peptide 14 = target: T16, M1' peptide 14; test: ELISA on coated antigen, relative OD450/650
Description: as §2

M1' peptide 9 = target: T17, M1' peptide 9; test: ELISA on coated antigen, relative OD450/650
Description: as §2

| Binder | Kd [1] [nM] | Kd [2] [nM] | Kd [3] [nM] | Kd [4] [nM] | IC50 [5] [nM] | Kd [6] [nM] | binding result (M1′ peptide 8) | binding result (M1′ peptide 7) | IC50 [10] [nM] | Kd [11] [nM] | Kd [12] [nM] | Kd [14] [nM] | binding result (M1′ peptide 4) | further results |
| --- | --- | --- | --- | --- | --- | --- | --- | --- | --- | --- | --- | --- | --- | --- |
| murine anti-IgE/M1′ antibody 26A11 (antibody, V domains shown, mIgG1 hybridoma antibody; also called mu26A11; 26A11 mIgG1) VH: EVQLQQSGPELVKPGASVKMSCKASGYTFTDYYMMWVKQSHGKSLEWIGDINPNNYDTSYNQKFKGKATLTVDKSSSTAYIQLNSLTSEDSAVYYCASKAYWGQGTLVTVSA VL: DIQMTQTTSSLSASLGDRVTITCRSSQDISNSLNWYQQKPDGPVKLLIYSTSRLHSGVPSRFSGSGSGTDYSLTISNLEQEDLATYFCQQGHTLPWTFGGGTKVEIKR | 2.3 | 1.75 | 5.1 | 0.3 | 12 | 1.6 | binds | binds | – | – | – | – | – | Kd [7]: 2.14 nM; Kd [8]: 1.94 nM; Kd [9]: 1.68 nM and 2.59 nM and 1.2 nM |
| murine anti-IgE/M1′ antibody 47H4 (antibody, V domains shown, mIgG1 hybridoma antibody; also called mu47H4; 47H4 mIgG1) VH: EVKLVESGGGLVQPGGSRKLSCAASGFTFSDYGMAWVRQAPGKGPEWVAFISDLAYTIYYADTVTGRFTISRENAKNTLYLEMSSLRSEDTALYYCARDNWDAMDYWGQGTSVTVSS VL: DIVLTQTPLSLPVSLGDQASISCRSSQSLVHNNGNTYLHWYLQKPGQSPKLLIYKVSNRFSGVPDRFSGSGSGTDFTLKISRLEAEDLGVYFCSQNTLVPWTFGGGTKVEIKR | 0.79 | 0.54 | 1.5 | 5.6 | 62 | 0.4 | – | – | 57 | 12 | 0.77 | 0.97 | binds | Kd [13]: 0.39 nM; Kd [15]: 0.57 nM; Kd [16]: 0.39 nM |
| humanized anti-IgE/M1′ antibody 47H4.v5 (antibody, V domains shown, huIgG1; also called 47H4v5 huIgG1; 47H5 v.5) VH: EVQLVESGGGLVQPGGSLRLSCAASGFTFSDYGIAWVRQAPGKGLEWVAFISDLAYTIYYADTVTGRFTISRDNSKNTLYLQMNSLRAEDTAVYYCARDNWDAMDYWGQGTLVTVSS VL: DIQMTQSPSSLSASVGDRVTITCRSSQSLVHNNANTYLHWYQQKPGKAPKLLIYKVSNRFSGVPSRFSGSGSGTDFTLTISSLQPEDFATYYCSQNTLVPWTFGQGTKVEIKR | 1.5 | – | – | – | – | – | no binding | no binding | 60 | 23 | 1.3 | 2.5 | binds | binding result (M1' peptide 6): no binding; binding result (M1' peptide 3): no binding; binding result (M1' peptide 11): no binding; binding result (M1' peptide 12): no binding; binding result (M1' peptide 10): no binding; binding result (M1' peptide 1): no binding; binding result (M1' peptide 15): no binding; binding result (M1' peptide 13): no binding; binding result (M1' peptide 2): no binding; binding result (M1′ peptide 5): no binding; binding result (M1' peptide 14): no binding; binding result (M1' peptide 9): no binding |
